According to patent publication US20110313230A1 (LUDWIG INSTITUTE FOR CANCER RESEARCH, published 2011):
Where no end group is shown, it is not given here. The star is where a group is joined. Biotin = O=C1N[C@H]2[C@H](CS[C@H]2CCCCC(=O)*)N1

Experiments:
[1] = target: T1, de2-7 EGFR unique junctional peptide (human); assay: dot-blot immune stain
T1 construct: non-biotinylated; also called Junction Peptide
T1 peptide: LEEKKGNYVVTDH-OH
Description: Dot-blot immune stain experiments were also performed. Serial dilutions of peptide were spotted in 0.5 μl onto a PVDF or nitrocellulose membranes.

[2] = target: T2, Peptide C: LEEKKGNYVVTDH(K-Biot)-OH (biotin on the added C-terminal Lys (K-Biot)); assay: BIAcore, Peptide C on streptavidin chip
T2 construct: also called C-terminal biotinylated de2-7 peptide
T2 peptide: LEEKKGNYVVTDHK
Description: Serial dilutions of mAbs were tested for reactivity with the peptide. Blocking experiments using non-biotinylated peptide were performed to assess specificity.

[3] = target: T3, biotinylated de2-7 specific peptide Biotin-LEEKKGNYVVTDH (human); assay: ELISA on biotinylated peptide on streptavidin plates
T3 construct: also called unique de2-7 EGFR peptide
T3 peptide: Biotin-LEEKKGNYVVTDH
Description: Two types of ELISA were used to determine the specificity of the antibodies. […] Antibodies were added to wells in triplicate at increasing concentration in 2% HSA in phosphate-buffered saline (PBS).
Antibodies were bound and detected as in the first assay.

[4] = target: T4, EGFR fragment 475-621 displayed on yeast (human, UniProt P00533 499-645); assay: flow cytometry on yeast-displayed, c-myc-tagged EGFR fragment (native)
T4 construct: yeast surface display, C-terminal c-myc tag
Description: (§1) Briefly, transformed colonies were grown at 30° C. in minimal media containing yeast nitrogen base, casein hydrolysate, dextrose, and phosphate buffer pH 7.4, on a shaking platform for approximately one day until an OD₆₀₀ of 5-6 was reached. […] Cultures were then stored at 4° C. until analysis. […] The cells were then washed with ice cold FACS buffer and incubated with phycoerythrin-labelled anti-mouse IgG (1:25 dilution), in a final volume of 50 μl for 1 h at 4° C., protected from light. After washing the yeast cells with ice-cold FACS buffer, fluorescence data was obtained with a Coulter Epics XL flow cytometer (Beckman-Coulter), and analyzed with WinMDI cytometry software (J. Trotter, Scripps University). For determination of linear versus conformational epitopes, yeast cells were heated at 80° C. for 30 min, then chilled on ice 20 min prior to labeling with antibodies.

[5] = target: T5, EGFR fragment 1-294 displayed on yeast (human, UniProt P00533 25-318); assay: flow cytometry on yeast-displayed, c-myc-tagged EGFR fragment (native), indirect immunofluorescence
T5 construct: yeast surface display, C-terminal c-myc tag
Description: as §1

[6] = target: T6, anti-idiotype antibody LMH-12; assay: sandwich ELISA: plate coated with 10 µg/ml LMH-12, detection with biotinylated LMH-12 (10 µg/ml), avidin-HRP and ABTS
T6 construct: mouse IgG1 kappa

[7] = target: T7, EGFR fragment 1-176 displayed on yeast (human, UniProt P00533 25-200); assay: flow cytometry on yeast-displayed, c-myc-tagged EGFR fragment (native); fragment printed '1-716' on the sheet, 1-176 in the text
T7 construct: yeast surface display, C-terminal c-myc tag
Description: as §1

B1: mAb806 (antibody, V domains shown)
VH: DVQLQESGPSLVKPSQSLSLTCTVTGYSITSDFAWNWIRQFPGNKLEWMGYISYSGNTRYNPSLKSRISITRDTSKNQFFLQLNSVTIEDTATYYCVTAGRGFPYWGQGTLVTVSA
VL: DILMTQSPSSMSVSLGDTVSITCHSSQDINSNIGWLQQRPGKSFKGLIYHGTNLDDEVPSRFSGSGSGADYSLTISSLESEDFADYYCVQYAQFPWTFGGGTKLEIKR
notes: murine IgG2b
binding result [1]: no binding
binding result [2]: no binding (tested: 100 nM)
binding result [3]: no binding
binding result [4]: no binding (tested: 10 µg/ml)
binding result [5]: no binding (tested: 10 µg/ml)
EC50 (read off the curve) [6]: ~0.07 µg/mL
binding result [7]: no binding (tested: 10 µg/ml)
